Data reported in the Human Domainome abundance scans (Beltran et al. 2025).
± gives the uncertainty stated by the source.

B1: Dynamin-binding protein, residues 146 to 206; numbered along this chain, Q6XZF7 (parent)
chain: SMGQARALMGLSAQLDEELDFREGDVITIIGVPEPGWFEGELEGRRGIFPEGFVELLGPLR
B2: Nanos homolog 2, residues 63 to 115; numbered along this chain, P60321 (parent)
chain: CNFCKHNGESRHVYSSHQLKTPDGVVVCPILRHYVCPVCGATGDQAHTLKYCP

Variants of: B1
Assay: abundance fitness (aPCA) (normalised: wild type 0, dead -1); higher = more abundant; growth selection in yeast, the domain comes from the species named
Settings: Homo sapiens

Row | Variant | abundance fitness
1 | SMGQARALTGLSAQLDEELDFREGDVITIIGVPEPGWFEGELEGRRGIFPEGFVELLGPLR | 0.017 ± 0.051
2 | SMGQARALFGLSAQLDEELDFREGDVITIIGVPEPGWFEGELEGRRGIFPEGFVELLGPLR | -0.225 ± 0.045
3 | SMGQARALCGLSAQLDEELDFREGDVITIIGVPEPGWFEGELEGRRGIFPEGFVELLGPLR | -0.013 ± 0.061
4 | WMGQARALMGLSAQLDEELDFREGDVITIIGVPEPGWFEGELEGRRGIFPEGFVELLGPLR | -0.16 ± 0.27
5 | MMGQARALMGLSAQLDEELDFREGDVITIIGVPEPGWFEGELEGRRGIFPEGFVELLGPLR | 0.073 ± 0.3
6 | IMGQARALMGLSAQLDEELDFREGDVITIIGVPEPGWFEGELEGRRGIFPEGFVELLGPLR | 0.103 ± 0.084
7 | TMGQARALMGLSAQLDEELDFREGDVITIIGVPEPGWFEGELEGRRGIFPEGFVELLGPLR | -0.092 ± 0.11
8 | VMGQARALMGLSAQLDEELDFREGDVITIIGVPEPGWFEGELEGRRGIFPEGFVELLGPLR | 0.076 ± 0.11
9 | AMGQARALMGLSAQLDEELDFREGDVITIIGVPEPGWFEGELEGRRGIFPEGFVELLGPLR | 0.121 ± 0.084
10 | NMGQARALMGLSAQLDEELDFREGDVITIIGVPEPGWFEGELEGRRGIFPEGFVELLGPLR | -0.049 ± 0.11
11 | RMGQARALMGLSAQLDEELDFREGDVITIIGVPEPGWFEGELEGRRGIFPEGFVELLGPLR | -0.319 ± 0.12
12 | DMGQARALMGLSAQLDEELDFREGDVITIIGVPEPGWFEGELEGRRGIFPEGFVELLGPLR | -0.036 ± 0.15
13 | YMGQARALMGLSAQLDEELDFREGDVITIIGVPEPGWFEGELEGRRGIFPEGFVELLGPLR | 0.064 ± 0.06
14 | CMGQARALMGLSAQLDEELDFREGDVITIIGVPEPGWFEGELEGRRGIFPEGFVELLGPLR | -0.077 ± 0.056
15 | HMGQARALMGLSAQLDEELDFREGDVITIIGVPEPGWFEGELEGRRGIFPEGFVELLGPLR | -0.104 ± 0.12
16 | FMGQARALMGLSAQLDEELDFREGDVITIIGVPEPGWFEGELEGRRGIFPEGFVELLGPLR | -0.029 ± 0.087
17 | PMGQARALMGLSAQLDEELDFREGDVITIIGVPEPGWFEGELEGRRGIFPEGFVELLGPLR | -0.661 ± 0.36
18 | LMGQARALMGLSAQLDEELDFREGDVITIIGVPEPGWFEGELEGRRGIFPEGFVELLGPLR | -0.554 ± 0.14
19 | SMGQARASMGLSAQLDEELDFREGDVITIIGVPEPGWFEGELEGRRGIFPEGFVELLGPLR | -0.305 ± 0.045
20 | SMGQARATMGLSAQLDEELDFREGDVITIIGVPEPGWFEGELEGRRGIFPEGFVELLGPLR | 0.014 ± 0.057

Row | Variant | abundance fitness
21 | SMGQAYALMGLSAQLDEELDFREGDVITIIGVPEPGWFEGELEGRRGIFPEGFVELLGPLR | -0.471 ± 0.064
22 | SMGQANALMGLSAQLDEELDFREGDVITIIGVPEPGWFEGELEGRRGIFPEGFVELLGPLR | -0.763 ± 0.094
23 | SMGQAQALMGLSAQLDEELDFREGDVITIIGVPEPGWFEGELEGRRGIFPEGFVELLGPLR | -0.495 ± 0.18
24 | SCGQARALMGLSAQLDEELDFREGDVITIIGVPEPGWFEGELEGRRGIFPEGFVELLGPLR | -0.521 ± 0.095
25 | SVGQARALMGLSAQLDEELDFREGDVITIIGVPEPGWFEGELEGRRGIFPEGFVELLGPLR | -0.277 ± 0.062
26 | SIGQARALMGLSAQLDEELDFREGDVITIIGVPEPGWFEGELEGRRGIFPEGFVELLGPLR | -0.03 ± 0.058
27 | SMNQARALMGLSAQLDEELDFREGDVITIIGVPEPGWFEGELEGRRGIFPEGFVELLGPLR | 0.245 ± 0.043
28 | SMWQARALMGLSAQLDEELDFREGDVITIIGVPEPGWFEGELEGRRGIFPEGFVELLGPLR | -0.227 ± 0.072
29 | SMGQGRALMGLSAQLDEELDFREGDVITIIGVPEPGWFEGELEGRRGIFPEGFVELLGPLR | -0.008 ± 0.045
30 | SMGQKRALMGLSAQLDEELDFREGDVITIIGVPEPGWFEGELEGRRGIFPEGFVELLGPLR | -0.696 ± 0.39
31 | SMGQPRALMGLSAQLDEELDFREGDVITIIGVPEPGWFEGELEGRRGIFPEGFVELLGPLR | -0.686 ± 0.11
32 | SMGQSRALMGLSAQLDEELDFREGDVITIIGVPEPGWFEGELEGRRGIFPEGFVELLGPLR | -0.545 ± 0.13
33 | SMGQDRALMGLSAQLDEELDFREGDVITIIGVPEPGWFEGELEGRRGIFPEGFVELLGPLR | -0.706 ± 0.18
34 | SMGQCRALMGLSAQLDEELDFREGDVITIIGVPEPGWFEGELEGRRGIFPEGFVELLGPLR | -0.302 ± 0.067
35 | SMGQARTLMGLSAQLDEELDFREGDVITIIGVPEPGWFEGELEGRRGIFPEGFVELLGPLR | -0.296 ± 0.21
36 | SMGQARVLMGLSAQLDEELDFREGDVITIIGVPEPGWFEGELEGRRGIFPEGFVELLGPLR | -0.836 ± 0.24
37 | SMGQARYLMGLSAQLDEELDFREGDVITIIGVPEPGWFEGELEGRRGIFPEGFVELLGPLR | -0.93 ± 0.12
38 | SMGQARELMGLSAQLDEELDFREGDVITIIGVPEPGWFEGELEGRRGIFPEGFVELLGPLR | -0.989 ± 0.33
39 | SMGQARFLMGLSAQLDEELDFREGDVITIIGVPEPGWFEGELEGRRGIFPEGFVELLGPLR | -1.01 ± 0.21
40 | SMGQARNLMGLSAQLDEELDFREGDVITIIGVPEPGWFEGELEGRRGIFPEGFVELLGPLR | -0.781 ± 0.11

Row | Variant | abundance fitness
41 | SMGQARKLMGLSAQLDEELDFREGDVITIIGVPEPGWFEGELEGRRGIFPEGFVELLGPLR | -0.672 ± 0.21
42 | SMGQARALMGLSHQLDEELDFREGDVITIIGVPEPGWFEGELEGRRGIFPEGFVELLGPLR | -0.548 ± 0.072
43 | SMGQARALMGLSIQLDEELDFREGDVITIIGVPEPGWFEGELEGRRGIFPEGFVELLGPLR | -0.541 ± 0.077
44 | SMGQARALMGLSPQLDEELDFREGDVITIIGVPEPGWFEGELEGRRGIFPEGFVELLGPLR | 0.013 ± 0.078
45 | SMGQARALMGLSQQLDEELDFREGDVITIIGVPEPGWFEGELEGRRGIFPEGFVELLGPLR | -0.348 ± 0.12
46 | SMGQARALMGLSTQLDEELDFREGDVITIIGVPEPGWFEGELEGRRGIFPEGFVELLGPLR | 0.353 ± 0.23
47 | SMGQARALMGLSEQLDEELDFREGDVITIIGVPEPGWFEGELEGRRGIFPEGFVELLGPLR | -0.57 ± 0.18
48 | SMGQARALMGLSADLDEELDFREGDVITIIGVPEPGWFEGELEGRRGIFPEGFVELLGPLR | -0.145 ± 0.058
49 | SMGQARALMGLSAILDEELDFREGDVITIIGVPEPGWFEGELEGRRGIFPEGFVELLGPLR | -0.354 ± 0.062
50 | SMGQARALMRLSAQLDEELDFREGDVITIIGVPEPGWFEGELEGRRGIFPEGFVELLGPLR | -0.014 ± 0.055
51 | SMGQARALMQLSAQLDEELDFREGDVITIIGVPEPGWFEGELEGRRGIFPEGFVELLGPLR | -0.016 ± 0.12
52 | SMGQARALMLLSAQLDEELDFREGDVITIIGVPEPGWFEGELEGRRGIFPEGFVELLGPLR | -0.436 ± 0.13
53 | SMGQARALMELSAQLDEELDFREGDVITIIGVPEPGWFEGELEGRRGIFPEGFVELLGPLR | -0.14 ± 0.09
54 | SMGQARALMGLEAQLDEELDFREGDVITIIGVPEPGWFEGELEGRRGIFPEGFVELLGPLR | -0.426 ± 0.45
55 | SMGQARALMGLLAQLDEELDFREGDVITIIGVPEPGWFEGELEGRRGIFPEGFVELLGPLR | -0.641 ± 0.12
56 | SMGQARALMGLMAQLDEELDFREGDVITIIGVPEPGWFEGELEGRRGIFPEGFVELLGPLR | -0.083 ± 0.23
57 | SMGLARALMGLSAQLDEELDFREGDVITIIGVPEPGWFEGELEGRRGIFPEGFVELLGPLR | -0.176 ± 0.047
58 | SMGMARALMGLSAQLDEELDFREGDVITIIGVPEPGWFEGELEGRRGIFPEGFVELLGPLR | -0.065 ± 0.13
59 | SMGQARALMGQSAQLDEELDFREGDVITIIGVPEPGWFEGELEGRRGIFPEGFVELLGPLR | 0.191 ± 0.072
60 | SMGQARALMGVSAQLDEELDFREGDVITIIGVPEPGWFEGELEGRRGIFPEGFVELLGPLR | -0.402 ± 0.081

Variants of: B2
Assay: as above
Settings: Homo sapiens

Row | Variant | abundance fitness
61 | Q18M | 0.091 ± 0.11
62 | V25Q | -0.05 ± 0.075
63 | V25R | 0.019 ± 0.086
64 | A46C | -0.816 ± 0.25
65 | A46V | -0.192 ± 0.1
66 | A46R | -0.322 ± 0.11
67 | L49Q | 0.347 ± 0.16
68 | L49S | -0.071 ± 0.097
69 | L49G | -0.05 ± 0.06
70 | L49D | -0.046 ± 0.097
71 | L49T | 0.016 ± 0.11
72 | P29S | -0.65 ± 0.12
73 | H33P | -0.319 ± 0.084
74 | V27M | -0.069 ± 0.17
75 | V27A | -0.074 ± 0.087
76 | V27Y | -0.128 ± 0.13
77 | V27T | 0.02 ± 0.072
78 | G43P | -0.718 ± 0.079
79 | V26Q | -0.305 ± 0.081
80 | V26C | -0.032 ± 0.12
81 | K50F | -0.418 ± 0.17
82 | K50W | -0.226 ± 0.12
83 | K50Q | -0.225 ± 0.11
